B1: Protein Tube (Drosophila melanogaster (Fruit fly)), P22812 (parent)
chain: MAYGWNGCGMGVQVNGSNGAIGLSSKYSRNTELRRVEDNDIYRLAKILDENSCWRKLMSIIPKGMDVQACSGAGCLNFPAEIKKGFKYTAQDVFQIDEAANRLPPDQSKSQMMIDEWKTSGKLNERPTVGVLLQLLVQAELFSAADFVALDFLNESTPARPVDGPGALISLELLEEEMEVDNEGLSLKYQSSTATLGADAQGSVGLNLDNFEKDIVRRDKSVPQPSGNTPPIAPPRRQQRSTTNSNFATLTGTGTTSTTIPNVPNLTILNPSEQIQEPVLQPRPMNIPDLSILISNSGDLRATVSDNPSNRTSSTDPPNIPRITLLIDNSGDVNSRPNHAPAKASTATTSTASSNNLPMISALNISKGSRETLRPESRSSSSSLSKDDDDDNDGEEDGEEEYPDAFLPNLSNSEQQSSNNDSSLTTVTGTSGDNSFELTNDSSSTSNDDYACNIPDLSELQQ
partner: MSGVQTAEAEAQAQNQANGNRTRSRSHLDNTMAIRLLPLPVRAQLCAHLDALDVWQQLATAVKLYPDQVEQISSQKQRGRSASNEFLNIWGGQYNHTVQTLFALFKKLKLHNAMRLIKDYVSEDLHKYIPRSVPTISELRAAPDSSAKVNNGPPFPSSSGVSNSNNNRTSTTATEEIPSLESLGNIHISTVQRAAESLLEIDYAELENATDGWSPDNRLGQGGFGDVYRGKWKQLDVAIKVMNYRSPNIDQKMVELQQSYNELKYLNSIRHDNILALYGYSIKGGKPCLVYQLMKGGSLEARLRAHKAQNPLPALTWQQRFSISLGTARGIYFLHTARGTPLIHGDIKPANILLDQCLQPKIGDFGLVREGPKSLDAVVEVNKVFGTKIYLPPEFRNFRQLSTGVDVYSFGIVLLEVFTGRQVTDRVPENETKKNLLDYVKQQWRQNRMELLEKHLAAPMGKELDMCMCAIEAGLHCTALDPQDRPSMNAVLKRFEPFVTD

Variants of: B1
Settings: with kpel_drome pll

Row | effect of a mutation on the interaction | Variant
1 | decreasing interaction | E50K

— IntAct's records for PubMed 12351681
